Columns and labels:
[1] = biological target: T1, recombinant human cathepsin S propeptide (residues 17-113) with N-terminal hexahistidine tag, expressed from pQE30
T1 chain: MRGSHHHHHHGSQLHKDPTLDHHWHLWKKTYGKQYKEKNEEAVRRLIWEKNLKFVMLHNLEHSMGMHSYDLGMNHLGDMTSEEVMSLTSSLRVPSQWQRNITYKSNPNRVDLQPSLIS

B1: human cathepsin S (Calbiochem) (protein)
chain: LPDSVDWREKGCVTEVKYQGSCGACWAFSAVGALEAQLKLKTGKLVSLSAQNLVDCSTEKYGNKGCNGGFMTTAFQYIIDNKGIDSDASYPYKAMDLKCQYDSKYRAATCSKYTELPYGREDVLKEAVANKGPVSVGVDARHPSFFLYRSGVYYEPSCTQNVNHGVLVVGYGDLNGKEYWLVKNSWGHNFGEEGYIRMARNKGNHCGIASFPSYPEI
Fc-control protein
  hydrolysis of Z-VVR-AMC by CatS (fluorometric assay): The Fc-control protein (200 nM) had no discernable effects on CatS activity
[1]
  elastinolytic turnover of Elastin-DQ by CatS over a 60 minute incubation: the inventors were able to demonstrate inhibition of this activity
  hydrolysis of Cbz-Val-Val-Arg-AMC by CatS (fluorometric assay), rCatSPP 0 nM to 500 nM: the dose-dependent inhibition of CatS activity was observed
